Columns and labels:
[1] = biological target: T1, recombinant human full-length TrpRS with C-terminal tag of six histidine residues
T1 chain: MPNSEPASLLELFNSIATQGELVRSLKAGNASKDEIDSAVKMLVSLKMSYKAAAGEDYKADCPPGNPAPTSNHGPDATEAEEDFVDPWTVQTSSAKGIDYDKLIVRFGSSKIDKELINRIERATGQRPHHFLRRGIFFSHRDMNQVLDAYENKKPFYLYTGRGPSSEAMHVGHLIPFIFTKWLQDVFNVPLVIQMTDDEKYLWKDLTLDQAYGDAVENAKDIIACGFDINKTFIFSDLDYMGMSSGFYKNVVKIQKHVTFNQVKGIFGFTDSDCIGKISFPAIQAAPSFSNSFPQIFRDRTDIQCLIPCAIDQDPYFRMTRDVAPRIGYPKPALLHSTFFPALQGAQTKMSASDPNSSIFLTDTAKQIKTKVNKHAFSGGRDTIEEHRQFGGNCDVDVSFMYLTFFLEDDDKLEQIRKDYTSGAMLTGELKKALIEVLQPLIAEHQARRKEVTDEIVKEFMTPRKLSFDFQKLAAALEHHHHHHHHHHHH

[2] = biological target: T2, recombinant human full-length TyrRS with C-terminal tag of six histidine residues
T2 chain: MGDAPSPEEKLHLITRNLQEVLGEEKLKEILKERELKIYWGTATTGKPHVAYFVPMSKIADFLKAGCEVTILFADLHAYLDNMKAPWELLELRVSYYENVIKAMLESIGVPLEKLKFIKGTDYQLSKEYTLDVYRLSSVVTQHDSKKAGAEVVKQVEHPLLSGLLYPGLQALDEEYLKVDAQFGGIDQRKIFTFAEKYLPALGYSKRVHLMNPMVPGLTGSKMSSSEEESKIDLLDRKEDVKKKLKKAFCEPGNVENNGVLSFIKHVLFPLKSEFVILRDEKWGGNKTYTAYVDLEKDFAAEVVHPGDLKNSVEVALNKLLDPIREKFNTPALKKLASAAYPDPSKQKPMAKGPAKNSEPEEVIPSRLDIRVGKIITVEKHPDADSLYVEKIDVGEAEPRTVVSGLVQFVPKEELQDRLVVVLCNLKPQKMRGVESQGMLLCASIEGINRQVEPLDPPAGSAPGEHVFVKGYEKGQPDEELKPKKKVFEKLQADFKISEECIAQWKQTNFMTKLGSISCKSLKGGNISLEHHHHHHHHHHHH

B1: PMN elastase (protein)
chain: IVGGRRARPHAWPFMVSLQLRGGHFCGATLIAPNFVMSAAHCVANVNVRAVRVVLGAHNLSRREPTRQVFAVQRIFENGYDPVNLLNDIVILQLNGSATINANVQVAQLPAQGRRLGNGVQCLAMGWGLLGRNRGIASVLQELNVTVVTSLCRRSNVCTLVRGRQAGVCFGDSGSPLVCNGLIHGIASFVRGGCASGLYPDAFAPVAQFVNWIDSIIQ
- cleavage of full-length TrpRS by PMN elastase (SDS-PAGE) [1]: PMN elastase cleavage of the 54 kDa full-length TrpRS generated a major fragment of 47 kDa and a minor fragment of 44 kDa
- cleavage of full-length TyrRS by PMN elastase (SDS-PAGE, immunoblot) [2]: the addition of PMN elastase to full-length TyrRS generated a doublet of ~40 kD fragments and a ~24 kD fragment

— US20020182666
